Literature values as cited in patent US20060160174A1, “Modified l49-sfv exhibiting increased stability and methods of use thereof” (priority 2002, published 2006).

What was measured:
[1] = cited from earlier work
p97 = molecular target: T1, p97 (Homo sapiens, UniProt P08582); details: parental molecule expressed in the E. coli periplasm; cited from earlier work
T1 sequence (P08582 20-709): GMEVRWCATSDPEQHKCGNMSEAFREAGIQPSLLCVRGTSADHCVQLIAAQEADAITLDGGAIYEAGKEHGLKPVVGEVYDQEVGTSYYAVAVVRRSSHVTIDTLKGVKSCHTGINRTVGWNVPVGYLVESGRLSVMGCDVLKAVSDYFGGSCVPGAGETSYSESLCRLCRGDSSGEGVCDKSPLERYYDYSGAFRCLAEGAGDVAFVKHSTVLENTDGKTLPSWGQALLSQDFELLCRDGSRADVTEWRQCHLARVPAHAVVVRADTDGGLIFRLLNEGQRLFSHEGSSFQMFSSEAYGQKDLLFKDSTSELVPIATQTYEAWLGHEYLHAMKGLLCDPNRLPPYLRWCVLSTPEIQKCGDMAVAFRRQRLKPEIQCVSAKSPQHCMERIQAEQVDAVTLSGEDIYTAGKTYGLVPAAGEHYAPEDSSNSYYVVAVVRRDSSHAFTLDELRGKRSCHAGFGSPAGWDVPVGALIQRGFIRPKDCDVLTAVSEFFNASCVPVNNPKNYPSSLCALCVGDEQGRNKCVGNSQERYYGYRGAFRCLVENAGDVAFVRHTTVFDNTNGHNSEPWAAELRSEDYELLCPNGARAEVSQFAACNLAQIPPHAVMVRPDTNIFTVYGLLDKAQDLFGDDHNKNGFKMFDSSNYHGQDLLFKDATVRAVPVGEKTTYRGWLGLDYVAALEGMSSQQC

B1: L49-sFv-bL: parental L49 single-chain Fv fused to Enterobacter cloacae β-lactamase, solubly expressed in the E. coli periplasm (Siemers et al., 1997) (protein)
scFv: MEVQLQESGPSLVKPSQTLSLTCSVTGDSITSGYWNWIRKFPGNKLEYMGYISDSGITYYNPSLKSRISITRDTSKNQYYLQLNFVTAEDTATYNCARRTLATYYAMDYWGQGTSVTVSSGSTSGSGKPGSGEGSTKGDFVMTQTPLSLPVSLGDQASISCRASQSLVHSNGNTYLHWYLQKPGQSPKLLIYRVSNRFSGVPDRFSGSGSGTDFTLKISRVEAEDLGVYFCSQSTHVPPTFGGGTKLEIKRTPVSEKQLAEVVANTITPLMKAQSVPGMAVAVIYQGKPHYYTFGKADIAANKPVTPQTLFELGSISKTFTGVLGGDAIARGEISLDDAVTRYWPQLTGKQWQGIRMLDLATYTAGGLPLQVPDEVTDNASLLRFYQNWQPQWKPGTTRLYANASIGLFGALAVKPSGMPYEQAMTTRVLKPLKLDHTWINVPKAEEAHYAWGYRDGKAVRVSPGMLDAQAYGVKTNVQDMANWVMANMAPENVADASLKQGIALAQSRYWRIGSMYQGLGWEMLNWPVEANTVVETSFGNVALAPLPVAEVNPPAPPVKASWVHKTGSTGGFGSYVAFIPEKQIGIVMLANTSYPNPARVEAAYHILEALQ
tumor to blood ratio ([1]; 24-48 hours after the fusion protein was administered): 141-150 :1 | terminal half-life t1/2β ([1]; clearance from systemic circulation): 2.5 h | Kd (p97): 1 nM
